This is an account of results in US20040166183A1, “Methods and means for preventing or treating inflammation or pruritis” (priority 1998, published 2004).

Data set [1] concerns therapy-resistant atopic dermatitis. The conditions noted are these: small study; cited from earlier work.
For data set [2], the system named is peri-stomal and peri-anal irritation caused by feces. As to conditions: applied topically; cited from earlier work.
In data set [3] the test system is bovine pancreatic elastase. Description: Effect of protease inhibitors on purified enzymes: elastase (azocasein). The class given is biochemical. As to conditions: STI, STI-A, -B, -C 0.125% end concentration, enzyme 0.02%; Trasylol undil.; PJ: 1 g PJ powder mixed with 2 ml and with 4 ml buffer. The protocol: (§1) Proteolytic activity was determined in the fecal homogenates in appropriate dilutions (up to 250-fold) in 0.1 M phosphate buffer (pH 7.6). Penicilline (0.1% w/v) was added to prevent bacterial growth. In the more recent inhibition tests no penicillin was used. Samples of 0.1 ml were incubated with 0.1 ml 1% (w/v) azocasein (Sigma) in phosphate buffer at 37° C. during 1 h. The reaction was stopped by addition of 0.2 ml 10% (w/v) trichloroacetic acid (TCA); after 10 min at room temperature unhydrolysed azocasein, bacteria and other particles were removed by centrifugation at 10,000 rpm during 10 min. Then 0.1 ml of the clear supernatant was transferred to 0.1 ml of 1 N NaOH in flatbottom 24 wells microplates. To the blank assays azocasein was added after incubation an addition of TCA. The absorption of the samples was measured at 450 nm and compared with standard curves obtained from solutions of azocasein. Proteolytic activity was expressed as milligrams azocasein hydrolysed during 1 h per gram dry or wet weight of sample. Each diluted sample was tested for other than enzymatic substrate hydrolysis after heating at 80° C. for 10 min. Spontaneous substrate hydrolysis was tested by incubation of the substrate with buffer. […]

Data set [4] addresses T1, bovine pancreatic trypsin (Bos taurus, UniProt P00760).
T1 construct: purchased Serva; host or cells: bovine pancreas
T1 sequence (P00760 24-246): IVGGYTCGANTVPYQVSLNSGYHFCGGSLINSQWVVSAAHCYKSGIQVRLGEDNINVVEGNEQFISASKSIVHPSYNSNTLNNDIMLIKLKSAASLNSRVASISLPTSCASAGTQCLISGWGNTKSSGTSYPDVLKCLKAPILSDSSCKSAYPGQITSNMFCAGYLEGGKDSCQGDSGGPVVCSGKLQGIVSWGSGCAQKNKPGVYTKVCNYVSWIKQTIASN
Description: Effect of protease inhibitors on purified enzymes: trypsin (azocasein). The class given is biochemical. As to conditions: for % Inhibition of the proteolytic activity, trypsin: STI, STI-A, -B, -C 0.125% end concentration, enzyme 0.02%, Trasylol undil., PJ: 1 g PJ powder mixed with 2 ml and with 4 ml buffer; for inhibition of trypsin activity: preliminary experiments. How it is done: (§2) Proteolytic activity was determined in the fecal homogenates in appropriate dilutions (up to 250-fold) in 0.1 M phosphate buffer (pH 7.6). Penicilline (0.1% w/v) was added to prevent bacterial growth. In the more recent inhibition tests no penicillin was used. Samples of 0.1 ml were incubated with 0.1 ml 1% (w/v) azocasein (Sigma) in phosphate buffer at 37° C. during 1 h. The reaction was stopped by addition of 0.2 ml 10% (w/v) trichloroacetic acid (TCA); after 10 min at room temperature unhydrolysed azocasein, bacteria and other particles were removed by centrifugation at 10,000 rpm during 10 min. Then 0.1 ml of the clear supernatant was transferred to 0.1 ml of 1 N NaOH in flatbottom 24 wells microplates. To the blank assays azocasein was added after incubation an addition of TCA. The absorption of the samples was measured at 450 nm and compared with standard curves obtained from solutions of azocasein. Proteolytic activity was expressed as milligrams azocasein hydrolysed during 1 h per gram dry or wet weight of sample. Each diluted sample was tested for other than enzymatic substrate hydrolysis after heating at 80° C. for 10 min. Spontaneous substrate hydrolysis was tested by incubation of the substrate with buffer.
(§3) In most of the experiments the inhibitor was added to feces (diluted 1:25 in buffer), mixed for 5-15 min and added to the substrate; PJ-powder was added to undiluted feces (1:1) and after mixing, diluted (1:25) with buffer. In each experiment controls were assayed (sterilized feces, sterilized inhibitors, buffer solutions).
bovine pancreatic trypsin (Serva)
(§4) All enzymes were used in a concentration of 0.2% (w/v) in buffer.
(§5) enzyme concentration was 0.02%, inhibitor concentration (end concentration) was 0.125%.

Data set [5] has as its system proteolytic activity in feces of ileostomy dog / pouch dog. Description: Inhibition of proteolytic activity in feces of ileostomy and pouch dogs (azocasein). The format is biochemical. How it is done: Fecal samples from 20 colectomized dogs, purebred Beagles (Harlan) were collected. Three ileostomy groups were studied. In ten dogs a standard Brooke ileostomy was constructed by subtotal colectomy. In five dogs a valveless ileal reservoir (pouch) was fashioned by a side-to-side iso-antiperistaltic anastomosis. After a recovery period of 2 weeks a schedule of increasing periods of occlusion was started, except for 5 dogs. The maximum tolerable occlusion time was 2.5-3 h for the ileostomy group and 4-7 h for the reservoir group. In five dogs a continent ileostomy (Kock's pouch) was constructed, which was emptied 2-5 times per 24 hours by catheterization.
(§6) Feces was frozen and stored at −20° C. within 3 h of passage. […] Samples of 1 g were transferred to 24 vol of 0.1 M phosphate buffer pH 7.6 and homogenized (‘Stomacher’, Lab blender 400). Coarse particles were removed from the homogenates by gauze filtration (Utermohlen, refolded to 2 layers); these samples are further referred to as ‘fecal homogenates’.
Proteolytic activity was determined in the fecal homogenates in appropriate dilutions (up to 250-fold) in 0.1 M phosphate buffer (pH 7.6). Penicilline (0.1% w/v) was added to prevent bacterial growth. In the more recent inhibition tests no penicillin was used. […] The reaction was stopped by addition of 0.2 ml 10% (w/v) trichloroacetic acid (TCA); after 10 min at room temperature unhydrolysed azocasein, bacteria and other particles were removed by centrifugation at 10,000 rpm during 10 min. Then 0.1 ml of the clear supernatant was transferred to 0.1 ml of 1 N NaOH in flatbottom 24 wells microplates. To the blank assays azocasein was added after incubation an addition of TCA. The absorption of the samples was measured at 450 nm and compared with standard curves obtained from solutions of azocasein. Proteolytic activity was expressed as milligrams azocasein hydrolysed during 1 h per gram dry or wet weight of sample. Each diluted sample was tested for other than enzymatic substrate hydrolysis after heating at 80° C. for 10 min. Spontaneous substrate hydrolysis was tested by incubation of the substrate with buffer.
as §3

Data set [6] has as its target T2, bovine pancreatic α-chymotrypsin (Bos taurus, UniProt P00766).
T2 construct: purchased Merck, Sigma; host or cells: bovine pancreas
Description: Effect of protease inhibitors on purified enzymes: chymotrypsin (azocasein). As to conditions: for % Inhibition of the proteolytic activity, chymotrypsin: STI, STI-A, -B, -C 0.125% end concentration, enzyme 0.02%, Trasylol undil., PJ: 1 g PJ powder mixed with 2 ml and with 4 ml buffer; for inhibition of α-chymotrypsin activity: preliminary experiments. The format is biochemical. The protocol:
as §2, §3
bovine pancreatic α-chymotrypsin (Merck, Sigma)
as §4, §5

For data set [7], the target named is T3, lesional elastase activity in psoriasis, contact dermatitis and atopic dermatitis (Homo sapiens, UniProt P08246).
T3 sequence (P08246 30-267): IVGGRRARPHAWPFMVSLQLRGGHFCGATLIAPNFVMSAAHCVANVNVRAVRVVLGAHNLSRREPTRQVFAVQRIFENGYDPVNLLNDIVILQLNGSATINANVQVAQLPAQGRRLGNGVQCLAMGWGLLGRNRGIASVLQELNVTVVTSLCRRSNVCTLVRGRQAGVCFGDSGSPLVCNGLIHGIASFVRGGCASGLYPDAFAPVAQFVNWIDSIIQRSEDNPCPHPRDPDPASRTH
The conditions noted are these: in vitro; Wiedow et al, Dermatol 1992; cited from earlier work.

Data set [8] deals with supernatant from feces of a patient with an ileum reservoir with a high proteolytic activity, on skin. Description: Skin test on the fore-arm with fecal supernatant and STI. The format is in vivo, human. The conditions noted are these: 7 h incubation on fore-arm. How it is done: Skin tests were performed on the ventral part of the fore-arm. The following solutions were tested: 1. supernatant from feces of a patient with an ileum reservoir with a high proteolytic activity; 2. the same supernatant, but sterilised; 3. supernatant with 0.25% STI (w/v) and 4. 0.25% STI in buffer. Two hundred μl of each solution were placed on folded cambric on the skin and covered with plastic and adhesion wound pad. Total incubation time was 7 h, but after 3 and 5 h 100 μl buffer was added to each of the test patches to prevent dehydration.
After removing the pads and the cambric the skin was carefully cleaned with tap water and judged immediately and after 1-18 h.

The next data set addresses T4, papaine (Carica papaya, UniProt P00784).
T4 construct: purchased Sigma
T4 sequence (P00784 134-345): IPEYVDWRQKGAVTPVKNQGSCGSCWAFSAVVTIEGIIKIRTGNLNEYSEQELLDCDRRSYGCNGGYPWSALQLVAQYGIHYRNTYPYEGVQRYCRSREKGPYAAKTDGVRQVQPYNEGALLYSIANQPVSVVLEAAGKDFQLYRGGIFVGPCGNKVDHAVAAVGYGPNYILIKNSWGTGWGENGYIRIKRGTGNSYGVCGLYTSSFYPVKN
Description: Effect of protease inhibitors on purified enzymes: papain (azocasein). The conditions noted are these: STI-A, -B, -C 0.125% end concentration, enzyme 0.02%; PJ: 1 g PJ powder mixed with 2 ml and with 4 ml buffer. The class given is biochemical. The protocol: as §1

A further data set relates to pronase. Description: Effect of protease inhibitors on purified enzymes: pronase (azocasein). The class given is biochemical. The conditions noted are these: STI-A, -B, -C 0.125% end concentration, enzyme 0.02%; PJ: 1 g PJ powder mixed with 2 ml and with 4 ml buffer. How it is done: as §1
Data set [9] has as its system proteolytic activity in feces of CD patients. Description: Inhibition of proteolytic activity in feces of CD patients (azocasein). The class given is biochemical, human. The conditions noted are these: n = 4, inhibitor added to feces 1:2000 diluted, 20 h incubated with substrate.
Source text: Fecal samples from twenty-seven patients with Crohn's disease (CD) were studied. Twelve patients, aged 27-58 years, had undergone intestinal surgery 3-12 years previously; locations of the resections were terminal ileum, ileum and caecum, and colon. A second group of patients was not operated; the principal sites of inflammation were ileum, ileum and colon, and colon. The diagnosis CD was established with the usual clinical, radiological and histopathological critria. All patients were outpatients.
as §6
Proteolytic activity was determined in the fecal homogenates in appropriate dilutions (up to 250-fold) in 0.1 M phosphate buffer (pH 7.6). Penicilline (0.1% w/v) was added to prevent bacterial growth. In the more recent inhibition tests no penicillin was used. […] The absorption of the samples was measured at 450 nm and compared with standard curves obtained from solutions of azocasein. Proteolytic activity was expressed as milligrams azocasein hydrolysed during 1 h per gram dry or wet weight of sample. […]

Where [10] appears, read: Ileostomy dog, n = 1*, inhibitor added to feces 1:2000 diluted, 20 h incubated with substrate, STI 1%.
[11] abbreviates: dog, n = 3°, inhibitor added to feces diluted 1:100, 2 h incubated, STI 1%.

Consider “alpha1-proteinase inhibitor: protease inhibitor cited from the literature”, for which the “effect on therapy-resistant atopic dermatitis” value in data set [1] was “wound healing effect”.
Turning to sucralfate, the “peri-stomal and peri-anal irritation caused by feces” value in data set [2] is recorded as “reduce”.

B1: STI: Trypsin inhibitor II-from Soybean (T-9003; Sigma) (protein, UniProt P01070 25-205, looked up)
Trypsin inhibitor A: DFVLDNEGNPLENGGTYYILSDITAFGGIRAAPTGNERCPLTVVQSRNELDKGIGTIISSPYRIRFIAEGHPLSLKFDSFAVIMLCVGIPTEWSVVEDLPEGPAVKIGENKDAMDGWFRLERVSDDEFNNYKLVFCPQQAEDDKCGDIGISIDHDDGTRRLVVSKNKPLVVQFQKLDKESL
Take B1: the “% Inhibition of the proteolytic activity, elastase” value in data set [3] is given as 15%. For the same molecule, the “% Inhibition of the proteolytic activity, trypsin” value in data set [4] was 99%. Moreover, the “% inhibition of the proteolytic activity” value in [5] (setting [10]) amounted to 93%; in data set [5] (STI 0.25%, dog, n = 3°, feces diluted 1:100, 2 h incubated), 63%; in [5] (STI 0.5%, dog, n = 3°, feces diluted 1:100, 2 h incubated) it was 61%; in data set [5] (STI 0.75%, dog, n = 3°, feces diluted 1:100, 2 h incubated) it was 45%; in data set [5] (setting [11]), 84%. Further, in [5] (STI in a concentration of 1% (w/v)), the “inhibition of the proteolytic activity” value is over 80%. Besides, the “% Inhibition of the proteolytic activity, chymotrypsin” value in data set [6] turned out to be 99%. Besides, the “effect on lesional elastase activity” value in data set [7] is recorded as “inhibitotory effect”. The skin reaction entry is reported as “slight redness that disappeared within 60 min” in data set [8] (location 3: fecal supernatant with 0.25% STI (w/v), supernatant alone: moderate redness, papulas, some vesiculas) and “No reaction” in [8] (location 4: 0.25% STI in buffer).

B2: STI-A: STI-type I-S Sigma T 9003 (protein, UniProt P01070 25-205, looked up)
Trypsin inhibitor A: DFVLDNEGNPLENGGTYYILSDITAFGGIRAAPTGNERCPLTVVQSRNELDKGIGTIISSPYRIRFIAEGHPLSLKFDSFAVIMLCVGIPTEWSVVEDLPEGPAVKIGENKDAMDGWFRLERVSDDEFNNYKLVFCPQQAEDDKCGDIGISIDHDDGTRRLVVSKNKPLVVQFQKLDKESL
For the molecule B2, the “% Inhibition of the proteolytic activity, elastase” value in data set [3] came to 50%. Moreover, in data set [4], the “% Inhibition of the proteolytic activity, trypsin” value amounted to 100% and the “inhibition of trypsin activity” value is “larger part”. For the same molecule, in the data set with papaine, the “% Inhibition of the proteolytic activity, papain” value came to 0%. Moreover, in [6], the “% Inhibition of the proteolytic activity, chymotrypsin” value turned out to be 80% and the “inhibition of α-chymotrypsin activity” value is given as “larger part”. Moreover, the “% Inhibition of the proteolytic activity, pronase” value in the data set with pronase amounted to 0%.

B3: ovomucoid: protease inhibitor, 1% (w/v) in 0.1 M phosphate buffer pH 7.6 (protein, UniProt P01005 25-210, looked up)
Ovomucoid: AEVDCSRFPNATDKEGKDVLVCNKDLRPICGTDGVTYTNDCLLCAYSIEFGTNISKEHDGECKETVPMNCSSYANTTSEDGKVMVLCNRAFNPVCGTDGVTYDNECLLCAHKVEQGASVDKRHDGGCRKELAAVSVDCSEYPKPDCTAEDRPLCGSDNKTYGNKCNFCNAVVESNGTLTLSHFGKC
Regarding B3, in data set [4], the “inhibition of trypsin activity” value is “larger part”. Moreover, the “% inhibition of the proteolytic activity” value is 93% in data set [5] (setting [10]); 52% in [5] (dog, n = 1†, undiluted feces + inhibitor (3 + 1), mixing for 2 h, then diluted 1:100); 84% in data set [5] (setting [11]); 68% in data set [9]. The “inhibition of α-chymotrypsin activity” value in [6] is listed as “larger part”.
